# Results from patent publication US5891438.
# Experiments:
# [1] = target: human tonsillar B cells (CD20+ / CD19+, surface Ig); test: flow cytometry, dual staining with biotinylated bacterial antigen
# [2] = target: human tonsillar B cells (CD20+ / CD19+, surface Ig); test: flow cytometry, biotinylated mod-SpA on tonsillar B cells; the pair that the inhibitors of Table 5 block
substance,measurement,setting,value
Protein G (from UniProt P19909),Protein G Binding (share of CD20 tonsillar cells),[1],9%
SpA modified by hyperiodination to destroy IgG Fc binding activity (mod-SpA) (from UniProt P38507),Binding (proportion of the total B cells bound by mod-SpA),[2],15
"staphylococcal protein A (SpA), purified recombinant form (from UniProt P38507)",SpA Binding (share of CD20 tonsillar cells),[1],29%
